{"source": "patent US20140057332A1", "about": "“GLUCO-OLIGOSACCHARIDE OXIDASES FROM ACREMONIUM STRICTUM AND USES THEREOF” (The Governing Council of the University of Toronto, priority 2011, published 2014)", "key": {"pH stability of enzyme": {"assay": "pH stability of enzyme", "type": "physicochemical", "procedure": "Temperature stability was measured by incubating 0.2 μg of enzyme for 1 h at nine different temperatures ranging from 25 to 60° C. (Table 9). While GOOX-VN and the variant GOOX-V were stable at 45° C., both lost more than 70% activity after incubation for 1 h at 50° C. […] The pH stability of GOOX-VN was determined by incubating 0.2 μg of the enzyme for 1 h at pH values from pH 3 to 12. After 1 h of incubation, GOOX-VN retained more than 80% activity at pH 5 to pH 10, 40% activity at pH 4, and less than 10% activity at pH values below 3 or above 11. Finally, the optimum pH for GOOX-VN activity was determined by incubating 0.1 μg of enzyme at 37° C. for up to 5 min with 25 mM cellobiose in 25 mM Britton-Robinson universal buffer solutions at pH 5 to 12. At regular time points, the chromogenic assay mix containing 400 mM potassium phosphate buffer pH 6, 0.1 mM 4-aminoantipyrine, 1 mM phenol, 3 U/ml horseradish peroxidase and 40 mM cellobiose was added to the reaction and was incubated for approximately 5 min at 37° C., until the chromogenic compound was detected."}, "[1]": {"assay": "Enzyme stability at 37° C. (residual activity on maltose)", "type": "physicochemical", "conditions": "pre-incubation at 37° C. for 60 min; 10 mM maltose (FIG. 11)", "procedure": "The enzyme stability was evaluated in triplicate by incubating 0.6 μg of each enzyme preparation in 40 mM Tris-HCl buffer (pH 8.0) for 0, 5, 15, 25, 35, and 60 min at 37° C. Residual enzyme activity was measured at 37° C. for 15 min at pH 8.0 using 10 mM maltose and 0.2 μg of protein."}, "[2]": {"assay": "Chromogenic H2O2 oxidase assay on xylohexaose", "conditions": "1 mM xylohexaose; 37° C., 15 min"}, "[3]": {"assay": "Chromogenic H2O2 oxidase assay / kinetic analysis on xylobiose"}, "[4]": {"assay": "Chromogenic H2O2 oxidase assay / kinetic analysis on cellobiose"}, "[5]": {"assay": "Chromogenic H2O2 oxidase assay / kinetic analysis on cellotriose"}, "[6]": {"conditions": "1 mM cellobiose, 37° C., 15 min"}, "[7]": {"conditions": "1 mM cellotriose, 37° C., 15 min"}}}
{"molecule": "Acremonium strictum gluco-oligosaccharide oxidase GOOX-VN (type strain CBS 346.70, V38 and N388), SEQ ID NO. 2 (Sarocladium strictum; A38V/S388N) (protein) NSINACLAAADVEFHEEDSEGWEMDGTAFNLRVDYDPVAIAIPRSTEDIAAAVQCGLDAGVQISAKGGGHSYGSYGFGGEDGHLMLELDRMYRVSVDDDNVATIQGGARLGYTALELLDQGNRALTHGTCPAVGIGGHVLGGGYGFATHTHGLTLDWLVGATVVLADASIVHVSKTENADLFWALRGGGGGFAIVSEFEFNTFEAPEIITTYQVTTTWNRKQHVAGLKALQDWAENTMPRELSMRLEINANALNWEGNYFGNAKDLKKVLQPIMKKAGGKSTISKLVETDWYGQINTYLYGADLNITYNYDVHEYFYANSLTAPRLSDEAISAFVDYKFDNSSVRPGRGWWIQWDFHGGKNSALASHSNDETAYAHRDQLWLWQFYDNIYDYENNTSPYPESGFEFMQGFVATIEDTLPEDRKGKYFNYADTTLDKEEAQKLYWRGNLEKLQAIKAKYDPEDVFGNVVSVEPIA", "values": [{"measurement": "activity retained after 1 h of incubation", "setting": "pH stability of enzyme; pH 4", "value": 40, "unit": "%"}, {"measurement": "activity retained after 1 h of incubation", "setting": "pH stability of enzyme; pH 5 to pH 10", "value": "more than 80%"}, {"measurement": "activity retained after 1 h of incubation", "setting": "pH stability of enzyme; pH values below 3 or above 11", "value": "less than 10%"}, {"measurement": "activity following pre-incubation", "setting": "[1]", "value": "remained active"}, {"measurement": "Specific Activity of Enzyme Variants", "setting": "[2]", "value": 11.0, "unit": "µmol/min/mg"}, {"measurement": "Specific Activity of Enzyme Variants", "setting": "[3]; 1 mM xylobiose, 37° C., 15 min", "value": 7.9, "unit": "µmol/min/mg"}, {"measurement": "Specific activity Defined substrate concentration", "setting": "[3]; 1 mM xylobiose, 37° C., 15 min", "value": 7.92, "unit": "µmol/mg/min"}, {"measurement": "Specific activity From Vmax", "setting": "[3]; substrate xylobiose", "value": 8.73, "unit": "µmol/mg/min"}, {"measurement": "Specific Activity of Enzyme Variants", "setting": "[4]; [6]", "value": 5.4, "unit": "µmol/min/mg"}, {"measurement": "Specific activity Defined substrate concentration", "setting": "[4]; [6]", "value": 5.38, "unit": "µmol/mg/min"}, {"measurement": "Specific activity From Vmax", "setting": "[4]; substrate cellobiose", "value": 6.18, "unit": "µmol/mg/min"}, {"measurement": "Specific Activity of Enzyme Variants", "setting": "[5]; [7]", "value": 5.1, "unit": "µmol/min/mg"}, {"measurement": "Specific activity Defined substrate concentration", "setting": "[5]; [7]", "value": 5.12, "unit": "µmol/mg/min"}, {"measurement": "Specific activity From Vmax", "setting": "[5]; substrate cellotriose", "value": 5.96, "unit": "µmol/mg/min"}]}
